# In IntAct's records for PubMed 22863753:
# B1: NLR family CARD domain-containing protein 3 (Homo sapiens), Q7RTR2 (parent)
# chain: MRKQEVRTGREAGQGHGTGSPAEQVKALMDLLAGKGSQGSQAPQALDRTPDAPLGPCSNDSRIQRHRKALLSKVGGGPELGGPWHRLASLLLVEGLTDLQLREHDFTQVEATRGGGHPARTVALDRLFLPLSRVSVPPRVSITIGVAGMGKTTLVRHFVRLWAHGQVGKDFSLVLPLTFRDLNTHEKLCADRLICSVFPHVGEPSLAVAVPARALLILDGLDECRTPLDFSNTVACTDPKKEIPVDHLITNIIRGNLFPEVSIWITSRPSASGQIPGGLVDRMTEIRGFNEEEIKVCLEQMFPEDQALLGWMLSQVQADRALYLMCTVPAFCRLTGMALGHLWRSRTGPQDAELWPPRTLCELYSWYFRMALSGEGQEKGKASPRIEQVAHGGRKMVGTLGRLAFHGLLKKKYVFYEQDMKAFGVDLALLQGAPCSCFLQREETLASSVAYCFTHLSLQEFVAAAYYYGASRRAIFDLFTESGVSWPRLGFLTHFRSAAQRAMQAEDGRLDVFLRFLSGLLSPRVNALLAGSLLAQGEHQAYRTQVAELLQGCLRPDAAVCARAINVLHCLHELQHTELARSVEEAMESGALARLTGPAHRAALAYLLQVSDACAQEANLSLSLSQGVLQSLLPQLLYCRKLRLDTNQFQDPVMELLGSVLSGKDCRIQKISLAENQISNKGAKALARSLLVNRSLTSLDLRGNSIGPQGAKALADALKINRTLTSLSLQGNTVRDDGARSMAEALASNRTLSMLHLQKNSIGPMGAQRMADALKQNRSLKELMFSSNSIGDGGAKALAEALKVNQGLESLDLQSNSISDAGVAALMGALCTNQTLLSLSLRENSISPEGAQAIAHALCANSTLKNLDLTANLLHDQGARAIAVAVRENRTLTSLHLQWNFIQAGAAQALGQALQLNRSLTSLDLQENAIGDDGACAVARALKVNTALTALYLQVASIGASGAQVLGEALAVNRTLEILDLRGNAIGVAGAKALANALKVNSSLRRLNLQENSLGMDGAICIATALSGNHRLQHINLQGNHIGDSGARMISEAIKTNAPTCTVEM
# partner: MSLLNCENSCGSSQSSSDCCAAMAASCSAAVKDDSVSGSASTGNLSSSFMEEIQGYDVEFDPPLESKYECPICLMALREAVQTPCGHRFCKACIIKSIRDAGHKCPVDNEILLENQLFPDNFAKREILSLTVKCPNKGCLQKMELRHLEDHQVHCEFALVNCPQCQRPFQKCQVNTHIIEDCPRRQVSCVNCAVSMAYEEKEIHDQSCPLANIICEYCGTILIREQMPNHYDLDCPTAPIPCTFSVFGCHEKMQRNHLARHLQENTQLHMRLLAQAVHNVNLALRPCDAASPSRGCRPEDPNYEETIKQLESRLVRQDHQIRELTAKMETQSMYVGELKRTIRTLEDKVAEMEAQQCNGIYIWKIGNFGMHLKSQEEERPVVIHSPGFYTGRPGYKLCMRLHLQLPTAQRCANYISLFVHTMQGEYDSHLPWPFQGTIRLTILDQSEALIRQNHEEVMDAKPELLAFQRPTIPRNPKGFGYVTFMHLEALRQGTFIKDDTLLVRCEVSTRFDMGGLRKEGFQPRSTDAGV
# Variants of: B1
# Conditions: with traf6_mouse Traf6, P70196
row,effect of a mutation on the interaction,Variant
1,decreasing interaction,S457A;L458A;Q459A;E460A
